Biological target: recombinant Factor VIII Fc fusion protein (rFVIIIFc) (human) [IgG part: P0DOX5]
Test: cell-based or functional assay

## von Willebrand Factor (VWF) (from UniProt P04275 764-2813)
  percent of cells characterized as osteoclasts at day 7 after rFVIIIFc together with VWF (14.2% with rFVIIIFc alone): 45.7%
